Experimental findings from patent publication US20200317768A1 (published 2020) are described below.

Common to all, as to assay: SPR (BIACORE), captured antibody, FcgR as analyte
On the technique in general: Surface plasmon resonance follows binding to a sensor surface in real time, without labels.

For test [1], the target named is T1, cynomolgus monkey FcγRIIa1 extracellular domain, His-tagged (cynomolgus monkey).
T1 construct: also called cyno FcγRIIa1; cynoFcgRIIa1; not shown: C-terminal His-tag
T1 chain: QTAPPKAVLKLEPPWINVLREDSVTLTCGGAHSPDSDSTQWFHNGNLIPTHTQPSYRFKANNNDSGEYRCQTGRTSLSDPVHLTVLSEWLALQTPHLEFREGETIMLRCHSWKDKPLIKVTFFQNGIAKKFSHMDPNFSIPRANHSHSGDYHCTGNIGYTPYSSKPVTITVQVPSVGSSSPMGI
As for the experimental part:
(§1) The kinetic analysis of interactions between these antibodies and FcγR was carried out using BIACORE® T200 or BIACORE® 4000 (GE Healthcare). HBS-EP+ (GE Healthcare) was used as the running buffer, and the measurement temperature was set to 25° C. A chip produced by immobilizing Protein A. Protein A/G or mouse anti-human IgG kappa light chain (BD Biosciences) onto a Series S Sensor Chip CM4 or CM5 (GE Healthcare) by the amine-coupling method was used. […] After the measurement, the antibody captured on the chip was washed off by allowing reaction with 10 mM glycine-HCl, pH1.5 and 25 mM NaOH so that the chip was regenerated and used repeatedly. The sensorgrams obtained as measurement results were analyzed by the 1:1 Langmuir binding model using the BIACORE® Evaluation Software to calculate the binding rate constant ka (L/mol/s) and dissociation rate constant kd (l/s), and the dissociation constant KD (mol/L) was calculated from these values. […] Regarding such interactions, KD values were calculated using the following 1:1 binding model described in BIACORE® T100 Software Handbook BR1006-48 Edition AE.

Test [2] has as its target T2, cynomolgus monkey FcγRIIa2 extracellular domain, His-tagged (cynomolgus monkey).
T2 construct: also called cyno FcγRIIa2; cynoFcgRIIa2; not shown: C-terminal His-tag
T2 chain: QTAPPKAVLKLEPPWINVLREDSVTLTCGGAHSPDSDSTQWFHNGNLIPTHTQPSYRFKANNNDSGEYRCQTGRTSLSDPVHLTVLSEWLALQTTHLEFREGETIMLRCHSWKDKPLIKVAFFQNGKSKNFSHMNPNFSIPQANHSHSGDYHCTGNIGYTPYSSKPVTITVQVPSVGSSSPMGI
As for the experimental part: as §1

The target of test [3] is T3, cynomolgus monkey FcγRIIa3 extracellular domain, His-tagged (cynomolgus monkey).
T3 construct: also called cyno FcγRIIa3; cynoFcgRIIa3; not shown: C-terminal His-tag
T3 chain: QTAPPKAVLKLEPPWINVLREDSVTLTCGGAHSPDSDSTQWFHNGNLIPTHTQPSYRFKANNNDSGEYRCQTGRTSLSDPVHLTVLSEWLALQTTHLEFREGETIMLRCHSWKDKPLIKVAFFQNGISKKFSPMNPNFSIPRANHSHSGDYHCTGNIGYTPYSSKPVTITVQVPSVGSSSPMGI
How it is done: as §1

In test [4] the target is T4, cynomolgus monkey FcγRIIb extracellular domain, His-tagged (cynomolgus monkey).
T4 construct: also called cyno FcγRIIb; cynoFcγRIIb; not shown: C-terminal His-tag
T4 chain: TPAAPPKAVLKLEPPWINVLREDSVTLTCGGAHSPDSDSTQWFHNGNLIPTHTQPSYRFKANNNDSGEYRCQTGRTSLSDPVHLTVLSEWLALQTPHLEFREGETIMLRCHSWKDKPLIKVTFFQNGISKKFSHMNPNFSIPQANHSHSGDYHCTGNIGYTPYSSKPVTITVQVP
How it is done: as §1

Test [5] has as its target T5, cynomolgus monkey FcγRIIIaS extracellular domain, His-tagged (cynomolgus monkey, UniProt Q8SPW2 21-206 at identity 1.00)).
T5 construct: also called cyno FcγRIIIaS; cynoFcγRIIIaS; not shown: C-terminal His-tag
T5 chain: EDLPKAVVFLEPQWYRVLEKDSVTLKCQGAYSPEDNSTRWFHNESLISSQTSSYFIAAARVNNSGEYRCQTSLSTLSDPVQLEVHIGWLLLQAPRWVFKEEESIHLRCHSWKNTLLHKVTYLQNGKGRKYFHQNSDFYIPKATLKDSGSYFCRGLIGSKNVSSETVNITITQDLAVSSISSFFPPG
How it is done:
as §1

The target of test [6] is T6, human FcγRIIaH extracellular domain, His-tagged (human, UniProt P12318 34-217).
T6 construct: also called human FcγRIIa (type H); FcgRIIaH; not shown: C-terminal His-tag
T6 sequence: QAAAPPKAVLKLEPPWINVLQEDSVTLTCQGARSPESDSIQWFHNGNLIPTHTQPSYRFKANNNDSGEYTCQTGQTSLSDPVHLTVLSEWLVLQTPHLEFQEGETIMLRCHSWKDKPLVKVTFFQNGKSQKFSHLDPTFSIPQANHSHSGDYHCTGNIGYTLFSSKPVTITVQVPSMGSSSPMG
As for the experimental part: as §1

The target of test [7] is T7, human FcγRIIaR extracellular domain, His-tagged (human, UniProt P12318 34-217).
T7 construct: also called human FcγRIIa (type R); FcgRIIaR; not shown: C-terminal His-tag
T7 chain: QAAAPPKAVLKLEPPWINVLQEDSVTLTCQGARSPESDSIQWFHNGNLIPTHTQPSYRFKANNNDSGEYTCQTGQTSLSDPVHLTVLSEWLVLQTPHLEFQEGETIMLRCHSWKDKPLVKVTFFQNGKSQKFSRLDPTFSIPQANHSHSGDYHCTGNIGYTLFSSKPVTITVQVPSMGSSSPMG
As for the experimental part: as §1

Test [8] addresses T8, human FcγRIIb extracellular domain, His-tagged (human, UniProt P31994 43-217).
T8 construct: also called FcgRIIb (human); not shown: C-terminal His-tag
T8 sequence: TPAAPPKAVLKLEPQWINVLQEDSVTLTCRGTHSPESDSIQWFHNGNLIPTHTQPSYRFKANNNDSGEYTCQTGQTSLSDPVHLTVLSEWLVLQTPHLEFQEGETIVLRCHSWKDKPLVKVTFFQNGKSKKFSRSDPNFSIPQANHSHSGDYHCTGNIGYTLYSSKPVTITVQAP
As for the experimental part:
as §1

For test [9], the target named is T9, human FcγRIIIaV extracellular domain, His-tagged (human, UniProt P08637 17-208).
T9 construct: also called FcgRIIIaV; not shown: C-terminal His-tag
As for the experimental part: as §1

T9 sequence (P08637 17-208 F176V): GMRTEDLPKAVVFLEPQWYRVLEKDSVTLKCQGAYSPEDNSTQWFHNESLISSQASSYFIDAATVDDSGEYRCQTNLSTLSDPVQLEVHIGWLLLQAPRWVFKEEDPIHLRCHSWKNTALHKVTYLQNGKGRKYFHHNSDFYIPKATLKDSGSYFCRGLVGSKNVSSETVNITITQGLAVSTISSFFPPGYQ

B1: M103205H795-MY449/M103202L889-SK1 (antibody, human IgG1, kappa)
heavy: QVTLKESGPVLVKPTETLTLTCTVSGIDLSHDDISWVRQAPGKGLEWVGIISYAGSTYYASWAKGRLTISKDTSKNQVVLTMTNMDPVDTATYYCARGVPAYSHGGDLWGQGTLVTVSSASTKGPSVFPLAPSSKSTSGGTAALGCLVKDYFPEPVTVSWNSGALTSGVHTFPAVLQSSGLYSLSSVVTVPSSSLGTQTYICNVNHKPSNTKVDKKVEPKSCDKTHTCPPCPALELLTGPSVFLFPPKPKDTLMISRTPEVTCVVVDVSDEDPEVKFNWYVDGVEVHNAKTKPREEQYNSTYRVVSVLTVLHQDWLNGKEYKCKVSNKALPKPIEKTISKAKGQPREPQVYTLPPSREEMTKNQVSLTCLVKGFYPSDIAVEWESNGQPENNYKTTPPVLDSDGSFFLYSKLTVDKSRWQQGNVFSCSVMHEALHNHYTQKSLSLSP
light: DIVMTQSPATLSLSPGERATLSCTSSQSVYHANWLSWFQQKPGQPPKLLIYWASTLAYGVPSRFSGSGSGTDFTLTISSLQPEDAATYYCAGGYGGGRYAFGQGTKVEIKRTVAAPSVFIFPPSDEQLKSGTASVVCLLNNFYPREAKVQWKVDNALQSGNSQESVTEQDSKDSTYSLSSTLTLSKADYEKHKVYACEVTHQGLSSPVTKSFNRGEC
notes: copies: 2 + 2
What is called Kd is the free concentration of one partner at which half of the binding sites on the other are occupied at equilibrium, for simple one-to-one binding. B1: the dissociation constant Kd came out at 0.87 µM in test [1]; 0.94 µM in [2]; 1.5 µM in test [3]; 0.23 µM in [4]; 1 µM in test [5]; 0.093 µM in test [6]. Moreover, the results for the Kd in [7], in test [8] and in test [9] were 0.074 µM, 0.29 µM and 3.7 µM, respectively.

B2: M103205H795-MY451/M103202L889-SK1 (antibody, human IgG1, kappa)
heavy: QVTLKESGPVLVKPTETLTLTCTVSGIDLSHDDISWVRQAPGKGLEWVGIISYAGSTYYASWAKGRLTISKDTSKNQVVLTMTNMDPVDTATYYCARGVPAYSHGGDLWGQGTLVTVSSASTKGPSVFPLAPSSKSTSGGTAALGCLVKDYFPEPVTVSWNSGALTSGVHTFPAVLQSSGLYSLSSVVTVPSSSLGTQTYICNVNHKPSNTKVDKKVEPKSCDKTHTCPPCPANELLTGPSVFLFPPKPKDTLMISRTPEVTCVVVDVSDEDPEVKFNWYVDGVEVHNAKTKPREEQYNSTYRVVSVLTVLHQDWLNGKEYKCKVSNKALPKPIEKTISKAKGQPREPQVYTLPPSREEMTKNQVSLTCLVKGFYPSDIAVEWESNGQPENNYKTTPPVLDSDGSFFLYSKLTVDKSRWQQGNVFSCSVMHEALHNHYTQKSLSLSP
light: DIVMTQSPATLSLSPGERATLSCTSSQSVYHANWLSWFQQKPGQPPKLLIYWASTLAYGVPSRFSGSGSGTDFTLTISSLQPEDAATYYCAGGYGGGRYAFGQGTKVEIKRTVAAPSVFIFPPSDEQLKSGTASVVCLLNNFYPREAKVQWKVDNALQSGNSQESVTEQDSKDSTYSLSSTLTLSKADYEKHKVYACEVTHQGLSSPVTKSFNRGEC
notes: copies: 2 + 2
As to B2, the Kd in test [1] turned out to be 3.6 µM; in test [2] it was 4.2 µM; in test [3], 6.7 µM; in test [4], 1 µM; in test [5], 2.7 µM; in test [6], 0.41 µM. Moreover, the Kd in test [7] was 0.84 µM; in test [8] it was 3 µM; in [9], 7.1 µM.

B3: M103205H795-MY452/M103202L889-SK1 (antibody, human IgG1, kappa)
heavy: QVTLKESGPVLVKPTETLTLTCTVSGIDLSHDDISWVRQAPGKGLEWVGIISYAGSTYYASWAKGRLTISKDTSKNQVVLTMTNMDPVDTATYYCARGVPAYSHGGDLWGQGTLVTVSSASTKGPSVFPLAPSSKSTSGGTAALGCLVKDYFPEPVTVSWNSGALTSGVHTFPAVLQSSGLYSLSSVVTVPSSSLGTQTYICNVNHKPSNTKVDKKVEPKSCDKTHTCPPCPAQELLTGPSVFLFPPKPKDTLMISRTPEVTCVVVDVSDEDPEVKFNWYVDGVEVHNAKTKPREEQYNSTYRVVSVLTVLHQDWLNGKEYKCKVSNKALPKPIEKTISKAKGQPREPQVYTLPPSREEMTKNQVSLTCLVKGFYPSDIAVEWESNGQPENNYKTTPPVLDSDGSFFLYSKLTVDKSRWQQGNVFSCSVMHEALHNHYTQKSLSLSP
light: DIVMTQSPATLSLSPGERATLSCTSSQSVYHANWLSWFQQKPGQPPKLLIYWASTLAYGVPSRFSGSGSGTDFTLTISSLQPEDAATYYCAGGYGGGRYAFGQGTKVEIKRTVAAPSVFIFPPSDEQLKSGTASVVCLLNNFYPREAKVQWKVDNALQSGNSQESVTEQDSKDSTYSLSSTLTLSKADYEKHKVYACEVTHQGLSSPVTKSFNRGEC
notes: copies: 2 + 2
Turning to B3, the Kd amounted to 3.4 µM in test [1]; 3.1 µM in test [2]; 6.5 µM in [3]; 0.92 µM in [4]; 2.8 µM in [5]; 0.36 µM in [6]. Further, the Kd in [7] is 0.62 µM; in test [8], 2.9 µM; in test [9] it was 6.1 µM.

B4: M103205H795-MY450/M103202L889-SK1 (antibody, human IgG1, kappa)
heavy: QVTLKESGPVLVKPTETLTLTCTVSGIDLSHDDISWVRQAPGKGLEWVGIISYAGSTYYASWAKGRLTISKDTSKNQVVLTMTNMDPVDTATYYCARGVPAYSHGGDLWGQGTLVTVSSASTKGPSVFPLAPSSKSTSGGTAALGCLVKDYFPEPVTVSWNSGALTSGVHTFPAVLQSSGLYSLSSVVTVPSSSLGTQTYICNVNHKPSNTKVDKKVEPKSCDKTHTCPPCPAMELLTGPSVFLFPPKPKDTLMISRTPEVTCVVVDVSDEDPEVKFNWYVDGVEVHNAKTKPREEQYNSTYRVVSVLTVLHQDWLNGKEYKCKVSNKALPKPIEKTISKAKGQPREPQVYTLPPSREEMTKNQVSLTCLVKGFYPSDIAVEWESNGQPENNYKTTPPVLDSDGSFFLYSKLTVDKSRWQQGNVFSCSVMHEALHNHYTQKSLSLSP
light: DIVMTQSPATLSLSPGERATLSCTSSQSVYHANWLSWFQQKPGQPPKLLIYWASTLAYGVPSRFSGSGSGTDFTLTISSLQPEDAATYYCAGGYGGGRYAFGQGTKVEIKRTVAAPSVFIFPPSDEQLKSGTASVVCLLNNFYPREAKVQWKVDNALQSGNSQESVTEQDSKDSTYSLSSTLTLSKADYEKHKVYACEVTHQGLSSPVTKSFNRGEC
notes: copies: 2 + 2
As to B4, the Kd in test [1] is 1.3 µM; in test [2], 1.1 µM; in [3], 2.2 µM; in test [4], 0.28 µM; in test [5], 1.8 µM; in test [6], 0.13 µM. In addition, the Kd in test [7] is 0.12 µM; in [8], 0.47 µM; in [9], 4 µM.
